Common to all, as to details: tags: MBP fusion (pMAL); label: 5'-biotin sense strand (SPR)
For one data set, the target named is ZFPu (synthetic). In words: SPR; HBS-EP; EMSA na. A general note: In SPR one partner is held on a chip, and binding of the other changes the refractive index at the surface.
Another data set has as its target ZFPc (synthetic). In words: SPR; HBS-EP, 1:1 with drifting baseline.
For a further data set, the target named is ZFPr (synthetic). In words: SPR; HBS-EP; EMSA na.
The target in another data set is ZFPa (synthetic). In words: SPR; HBS-EP, 1:1 with drifting baseline.
The next data set addresses ZFPf (synthetic). In words: SPR; HBS-EP, 1:1 Langmuir.
The target in another data set is ZFPk (synthetic). In words: SPR; HBS-EP.
In a further data set the target is ZFPe (synthetic). In words: SPR; HBS-EP; text elsewhere calls ZFPe the picomolar binder.
A further data set addresses ZFPt (synthetic). In words: SPR; HBS-EP; EMSA na.
Another data set has as its target ZFPd (synthetic). In words: SPR; HBS-EP; text elsewhere calls ZFPe the picomolar binder.
In a further data set the target is ZFPn (synthetic). In words: SPR; HBS-EP.
The next data set addresses ZFPb (synthetic). In words: SPR; HBS-EP, 1:1 with drifting baseline.
For another data set, the target named is ZFPq (synthetic). In words: SPR; HBS-EP; EMSA na.
Chain of ZFPq (synthetic) (chain, as listed by the source): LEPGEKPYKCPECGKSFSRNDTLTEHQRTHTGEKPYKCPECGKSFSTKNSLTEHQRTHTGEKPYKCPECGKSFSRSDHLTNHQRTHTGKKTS

Chain of ZFPk (synthetic) (chain, as listed by the source): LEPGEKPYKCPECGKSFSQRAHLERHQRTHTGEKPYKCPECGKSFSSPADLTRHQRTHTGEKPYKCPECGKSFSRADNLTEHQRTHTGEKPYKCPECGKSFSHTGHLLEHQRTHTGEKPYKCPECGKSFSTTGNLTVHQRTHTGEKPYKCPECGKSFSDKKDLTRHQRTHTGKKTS
Chain of ZFPb (synthetic) (chain, as listed by the source): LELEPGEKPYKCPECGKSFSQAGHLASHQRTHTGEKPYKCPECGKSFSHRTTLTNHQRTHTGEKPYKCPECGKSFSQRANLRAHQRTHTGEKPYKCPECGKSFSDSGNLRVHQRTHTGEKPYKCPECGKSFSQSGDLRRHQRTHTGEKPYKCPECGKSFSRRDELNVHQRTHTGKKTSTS
Chain of ZFPa (synthetic) (chain, as listed by the source): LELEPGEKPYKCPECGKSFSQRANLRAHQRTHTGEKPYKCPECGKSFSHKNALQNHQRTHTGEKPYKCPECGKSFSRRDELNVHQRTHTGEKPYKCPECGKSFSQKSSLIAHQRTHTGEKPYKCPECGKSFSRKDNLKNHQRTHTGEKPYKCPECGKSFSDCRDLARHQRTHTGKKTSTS
Chain of ZFPr (synthetic) (chain, as listed by the source): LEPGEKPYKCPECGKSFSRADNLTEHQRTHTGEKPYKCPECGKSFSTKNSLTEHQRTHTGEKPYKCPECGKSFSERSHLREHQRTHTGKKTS
Chain of ZFPf (synthetic) (chain, as listed by the source): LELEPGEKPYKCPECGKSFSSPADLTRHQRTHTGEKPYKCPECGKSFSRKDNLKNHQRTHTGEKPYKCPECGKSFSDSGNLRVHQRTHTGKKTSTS
Chain of ZFPc (synthetic) (chain, as listed by the source): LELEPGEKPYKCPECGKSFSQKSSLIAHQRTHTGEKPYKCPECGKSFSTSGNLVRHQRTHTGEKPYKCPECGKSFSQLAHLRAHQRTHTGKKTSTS
Chain of ZFPn (synthetic) (chain, as listed by the source): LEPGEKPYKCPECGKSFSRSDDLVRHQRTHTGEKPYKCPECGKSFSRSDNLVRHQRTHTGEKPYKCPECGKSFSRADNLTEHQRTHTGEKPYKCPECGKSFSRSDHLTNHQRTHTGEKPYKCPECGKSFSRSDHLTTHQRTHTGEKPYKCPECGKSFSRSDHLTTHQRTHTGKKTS
Chain of ZFPd (synthetic) (chain, as listed by the source): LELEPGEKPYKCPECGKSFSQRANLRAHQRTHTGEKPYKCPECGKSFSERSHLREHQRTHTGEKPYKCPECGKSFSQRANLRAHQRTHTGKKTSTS
Chain of ZFPu (synthetic) (chain, as listed by the source): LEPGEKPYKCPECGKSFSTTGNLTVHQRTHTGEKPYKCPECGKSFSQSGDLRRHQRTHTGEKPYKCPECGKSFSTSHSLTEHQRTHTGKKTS
Chain of ZFPe (synthetic) (chain, as listed by the source): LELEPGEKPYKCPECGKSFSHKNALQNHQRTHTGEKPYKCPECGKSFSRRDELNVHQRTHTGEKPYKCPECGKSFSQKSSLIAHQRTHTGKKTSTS
Chain of ZFPt (synthetic) (chain, as listed by the source): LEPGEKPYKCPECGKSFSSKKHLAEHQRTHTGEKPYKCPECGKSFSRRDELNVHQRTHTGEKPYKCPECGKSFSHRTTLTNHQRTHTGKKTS

B1: ZFPu target oligo (dsDNA)
DNA 1: AGTACTCCAGCAAATAGTACT
DNA 2: AGTACTATTTGCTGGAGTACT
The Kd is the concentration at which binding is half-saturated. B1 gave a Kd with ZFPu of 2470 nM.

B2: ZFPc target oligo (dsDNA)
DNA 1: AGTACTAGAGATATAAGTACT
DNA 2: AGTACTTATATCTCTAGTACT
Take B2: in the data set with ZFPc, the Kd was found to be 99 nM.

B3: ZFPr target oligo (dsDNA)
DNA 1: AGTACTAGCCCTCAGAGTACT
DNA 2: AGTACTCTGAGGGCTAGTACT
The molecule B3 yielded a Kd in the data set with ZFPr of 502 nM.

B4: ZFPa target oligo (dsDNA)
DNA 1: AGTACTGCCAAGATAATGATTAAAAGTACT
DNA 2: AGTACTTTTAATCATTATCTTGGCAGTACT
In the case of B4, in the data set with ZFPa, binding was put at a Kd of 12.3 nM.

B5: ZFPf target oligo (dsDNA)
DNA 1: AGTACTAACAAGACAAGTACT
DNA 2: AGTACTTGTCTTGTTAGTACT
In the case of B5, the Kd with ZFPf turned out to be 185000 nM.

B6: ZFPk target oligo (dsDNA)
DNA 1: AGTACTACCAATCGCCAGACAGGAAGTACT
DNA 2: AGTACTTCCTGTCTGGCGATTGGTAGTACT
The molecule B6 came in with a Kd with ZFPk of 5.14 nM.

B7: ZFPe target oligo (dsDNA)
DNA 1: AGTACTATAATGATTAGTACT
DNA 2: AGTACTAATCATTATAGTACT
Molecule B7 yielded a Kd with ZFPe of 67.1 nM.

B8: ZFPt target oligo (dsDNA)
DNA 1: AGTACTAGTATGCCCAGTACT
DNA 2: AGTACTGGGCATACTAGTACT
In the data set with ZFPt, B8 yielded a Kd of 1070 nM.

B9: ZFPd target oligo (dsDNA)
DNA 1: AGTACTAAAAGCAAAAGTACT
DNA 2: AGTACTTTTGCTTTTAGTACT
As for B9, binding with ZFPd was put at a Kd of 0.471 nM.

B10: ZFPn target oligo (dsDNA)
DNA 1: AGTACTTGGTGGAGGCAGGAGGCGAGTACT
DNA 2: AGTACTCGCCTCCTGCCTCCACCAAGTACT
On to B10, for which, in the data set with ZFPn, the Kd was 69.4 nM.

B11: ZFPb target oligo (dsDNA)
DNA 1: AGTACTATGGCAAACAAAAGTTGAAGTACT
DNA 2: AGTACTTCAACTTTTGTTTGCCATAGTACT
For B11, the Kd with ZFPb was determined as 40.2 nM.

B12: ZFPq target oligo (dsDNA)
DNA 1: AGTACTAGGCCTCCGAGTACT
DNA 2: AGTACTCGGAGGCCTAGTACT
B12 yielded a Kd with ZFPq of 1290 nM.

(Values after US20110015122, “[…] B VIRUS-BINDING POLYPEPTIDES AND METHODS OF USE […]” (published 2011).)
